Laboratory results as given in patent EP0622394A1, “Reversible modification of sulfur-containing molecules with polyalkylene glycol derivatives and their use” (S.A. LABORATOIRES S.M.B., priority 1993, dated 1994).

B1: S-Pegylated papain: papain modified at its thiol with a 5 kDa PEG chain through a disulfide bond (conjugate, UniProt P00784 134-345, looked up)
Papain: IPEYVDWRQKGAVTPVKNQGSCGSCWAFSAVVTIEGIIKIRTGNLNEYSEQELLDCDRRSYGCNGGYPWSALQLVAQYGIHYRNTYPYEGVQRYCRSREKGPYAAKTDGVRQVQPYNEGALLYSIANQPVSVVLEAAGKDFQLYRGGIFVGPCGNKVDHAVAAVGYGPNYILIKNSWGTGWGENGYIRIKRGTGNSYGVCGLYTSSFYPVKN
modifications: S-PEG 5 kDa
notes: papain modified at its thiol with a 5 kDa PEG chain through a disulfide bond

Legend:
[1] = Infrared spectroscopy (Fourier self-deconvolution, curve fitting of the amide I region): content of secondary structures; type: physicochemical; conditions: FTIR amide I region; counter-ions K+ and Cl-; pH 5.0
Description: Spectra were recorded with a Perkin-Elmer infrared spectrometer 983 G equipped with a Perkin-Elmer microspecular reflectance accessory (ref. P.E. 221-0357). The internal reflection element was a Germanium ATR plate (50 x 20 x 2 mm, Harrick EJ 2121) with an aperture angle of 45° yielding 25 […] reflections. The mean stan rate was 15.5 cm⁻¹/minute and up to 20 accumulations were performed when necessary to improve the signal to noise ratio. The spectrophotometer was continuously purged with air dried on a silica gel column (5 x 130 cm) at a flow rate of 7 l/minute. Spectra were recorded at a nominal resolution of 2 cm⁻¹ and encoded every 0.5 cm⁻¹. At the end of the scan, they are transferred from the memory of the spectrophotometer to an Olivetti M 40 itself coupled to an Olivetti M 24 computer Spectra were Fourier transformed and stored for subsequent treatments.
In both cases the S-pegylated protein eluted from the CM-Sephadex C-50 before the irreversibly oxidized material. […] Indeed : 1. […] The proportions of the different secondary structures were determined, as previously described by Cabiaux et al, 1989, J. Biol. Chem., 264:4928-4938, using the frequency regions for the different structures as follows : 1661-1647 cm⁻¹ : α-helix; 1689-1682 + 1637-1615 cm⁻¹ : β-sheet; 1644.5-1637.7 cm⁻¹ : random and 1682-1661 cm⁻¹ : β-turn. […]

[2] = Acid denaturation: residual amidase activity after incubation in acidic buffer; type: physicochemical; conditions: 40 µM proteinase, 25°C
Description: Indeed : • 1. […] Similar results were obtained in the case of papain.
Time course dependence of acid denaturation of S-methylthio PP III (---) and S-pegyl (5000) thio PP III (―) at various pH and at 25°C.
At various time intervals, aliquot were removed and assayed for residual amidase activity using the assay method N° 3.

Molecule	PERCENTAGE OF Random [1]	PERCENTAGE OF α-Helix [1]	PERCENTAGE OF β-Sheet [1]	PERCENTAGE OF β-Turns [1]	lowest pH at which solutions remain stable (acid denaturation) [2]
S-Pegylated Papaya Pectinase III: papaya proteinase III S-pegylated with PEG 5 kDa disulfide derivative	8.3	27.9	36.1	27.7	2.6
B1	8.2	28.2		27.0	
